Laboratory results from US20230235012A1 (ALPINE IMMUNE SCIENCES, published 2023).
Where a chain is given by its changes, count along the chain named. In names and notes the source's numbering stands. Several values for one entry are separate records, joined by “and”; a condition that tells them apart may be missing. Equal entries are not always repeated. Blank lines part the entries; values can stand above or below the molecule they belong to.

Tests used:
[1] = target: T1, human CD28 (human, UniProt P10747 19-220); test: flow cytometry, CD28-transfected cells
T1 construct: whole, on cells

[2] = target: human CD28, full-length, expressed on transfected cells (human) (UniProt P10747); test: flow cytometry, transfected cells
[3] = target: human PD-L1, full-length, expressed on transfected cells (human) (UniProt Q9NZQ7); test: flow cytometry, transfected cells
[4] = target: human PD-L1 (human) (UniProt Q9NZQ7); test: flow cytometry, PD-L1-transfected cells
[5] = target: human CD28, full length, expressed on cells (human) (UniProt P10747); test: flow cytometry, ECD-Fc on CD28-transfected HEK293 cells
[6] = target: human CD28, full length, expressed on cells (human, UniProt P10747 19-220); test: flow cytometry of human T cells from blood of treated GVHD mice
[7] = target: T1, human CD28; test: flow cytometry, transfected cells; protein from CHO
[8] = target: T2, human ICOS (human, UniProt Q9Y6W8 21-199); test: as above
T2 construct: whole, on cells
T2 sequence (looked up): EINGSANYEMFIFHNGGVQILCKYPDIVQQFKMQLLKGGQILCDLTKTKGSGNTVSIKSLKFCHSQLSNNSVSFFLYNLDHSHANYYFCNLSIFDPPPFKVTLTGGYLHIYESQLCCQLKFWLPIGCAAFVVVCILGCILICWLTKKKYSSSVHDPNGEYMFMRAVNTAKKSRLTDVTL

[9] = target: T3, human CTLA-4 (human, UniProt P16410 36-223); test: as above
T3 construct: whole, on cells

[10] = target: T1, human CD28; test: flow cytometry, transfected cells; protein from 293
[11] = target: T2, human ICOS; test: as above
[12] = target: T3, human CTLA-4; test: as above
[13] = target: T1, human CD28; test: flow cytometry, transfected cells; protein from CHO; remark: listed apart in the source
[14] = target: T2, human ICOS; test: as above; remark: listed apart in the source
[15] = target: T3, human CTLA-4; test: as above; remark: listed apart in the source
[16] = target: T4, human ICOS, full length, expressed on cells (human, UniProt Q9Y6W8 21-199); test: flow cytometry on CHO cells transduced for surface expression of full-length human ICOS; Fc protein 32 pM to 100 nM, PE anti-human IgG, MFI
T4 sequence: T2 sequence (looked up)

[17] = target: T3, human CTLA-4; test: flow cytometry, transfected cells

T3 sequence (P16410 36-223): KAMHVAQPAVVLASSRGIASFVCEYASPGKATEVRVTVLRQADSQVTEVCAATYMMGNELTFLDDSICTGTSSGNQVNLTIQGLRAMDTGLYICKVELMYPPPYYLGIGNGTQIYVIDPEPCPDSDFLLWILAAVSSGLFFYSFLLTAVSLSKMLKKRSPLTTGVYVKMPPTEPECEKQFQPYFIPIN
human PD-L1 (human), sequence (Q9NZQ7 19-290): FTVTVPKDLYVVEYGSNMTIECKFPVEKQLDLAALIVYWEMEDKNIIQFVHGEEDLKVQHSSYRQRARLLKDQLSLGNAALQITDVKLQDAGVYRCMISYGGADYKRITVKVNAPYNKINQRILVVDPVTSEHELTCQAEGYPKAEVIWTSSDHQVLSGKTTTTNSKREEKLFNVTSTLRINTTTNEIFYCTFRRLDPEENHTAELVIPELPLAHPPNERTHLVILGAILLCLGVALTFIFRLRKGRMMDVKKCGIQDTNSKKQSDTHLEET
human PD-L1, full-length, expressed on transfected cells (human), sequence (Q9NZQ7 19-290): as above

MFI [1]: 8610 MFI and 4160 MFI | parental ratio of MFI [1]: 1.92 fold vs WT and 0.93 fold vs WT
Molecule: ICOSL F27S/N52H/N57Y/V110N ECD-Fc (Fc fusion)

MFI [2]: 7920 MFI
Molecule: stacked Fc fusion: Domain 1 ICOSL WT / Domain 2 NKp30 WT / Fc

MFI [2]: 6340 MFI
Molecule: stacked Fc fusion: Domain 1 NKp30 WT / Domain 2 ICOSL WT / Fc

parental ratio of MFI [1]: 0.93 fold vs WT
Molecule: ICOSL N52H/N57Y/Q100R/V110D/V116A/L161M/F172S/S192G/C198R ECD-Fc (Fc fusion)

MFI [4]: 3000 MFI
Molecule: stack ICOSL WT IgV / CD80 WT IgV / Fc (Fc fusion)

CD28 MFI [5]: 16 MFI | CD28 MFI parental ratio (ratio to WT ICOSL) [5]: 0.87
B2: variant ICOSL ECD-Fc S54F/V193A (Fc fusion)
chain: DTQEKEVRAMVGSDVELSCACPEGSRFDLNDVYVYWQTSESKTVVTYHIPQNSFLENVDSRYRNRALMSPAGMLRGDFSLRLFNVTPQDEQKFHCLVLSQSLGFQEVLSVEVTLHVAANFSVPVVSAPHSPSQDELTFTCTSINGYPRPNVYWINKTDNSLLDQALQNDTVFLNMRGLYDVVSVLRIARTPSANIGCCIENVLLQQNLTVGSQTGNDIGERDKITENPVSTGEKNAATAAAEPKSSDKTHTCPPCPAPELLGGPSVFLFPPKPKDTLMISRTPEVTCVVVDVSHEDPEVKFNWYVDGVEVHNAKTKPCEEQYGSTYRCVSVLTVLHQDWLNGKEYKCKVSNKALPAPIEKTISKAKGQPREPQVYTLPPSREEMTKNQVSLTCLVKGFYPSDIAVEWESNGQPENNYKTTPPVLDSDGSFFLYSKLTVDKSRWQQGNVFSCSVMHEALHNHYTQKSLSLSPGK

binding result [6]: binds
B3: variant ICOSL IgV-Fc (N52H/N57Y/Q100R) (Fc fusion)
chain: DTQEKEVRAMVGSDVELSCACPEGSRFDLNDVYVYWQTSESKTVVTYHIPQHSSLEYVDSRYRNRALMSPAGMLRGDFSLRLFNVTPQDEQKFHCLVLSRSLGFQEVLSVEVTLHVAANFSVEPKSSDKTHTCPPCPAPEAEGAPSVFLFPPKPKDTLMISRTPEVTCVVVDVSHEDPEVKFNWYVDGVEVHNAKTKPREEQYNSTYRVVSVLTVLHQDWLNGKEYKCKVSNKALPAPIEKTISKAKGQPREPQVYTLPPSRDELTKNQVSLTCLVKGFYPSDIAVEWESNGQPENNYKTTPPVLDSDGSFFLYSKLTVDKSRWQQGNVFSCSVMHEALHNHYTQKSLSLSPG

EC50 (read off the curve) [16]: ~0.8 nM
B5: ICOSL (N52D) (Fc fusion, not shown: a dimerising Fc or GST; small tags and cut ends)
chain: DTQEKEVRAMVGSDVELSCACPEGSRFDLNDVYVYWQTSESKTVVTYHIPQDSSLENVDSRYRNRALMSPAGMLRGDFSLRLFNVTPQDEQKFHCLVLSQSLGFQEVLSVEVTLHVAANFSV
notes: also called ICOSL H79; parental ICOSL only protein

Further lines, the molecule ahead of its results:

Molecule: ICOSL T43A/N52H/N57Y/L74Q/D89G/V110D/F172S ECD-Fc (Fc fusion)
parental ratio of MFI [1]: 0.49 fold vs WT

Molecule: ICOSL Y47H/N52S/V107A/F120S ECD-Fc (Fc fusion)
parental ratio of MFI [1]: 0.31 fold vs WT

Molecule: stacked Fc fusion: Domain 1 CD80 WT / Domain 2 ICOSL WT / Fc
MFI [3]: 2660 MFI

Molecule: stack CD80 WT IgV / ICOSL WT IgV / Fc (Fc fusion)
MFI [4]: 1230 MFI

B1: variant ICOSL ECD-Fc F120S/Y152H/N201S (Fc fusion)
chain: B2 chain with F54S, F120S, Y152H, A193V, N201S
CD28 MFI parental ratio (ratio to WT ICOSL) [5]: 0.89

B4: ICOSL ECD with N52H/N57Y/Q100R/F172S, (G4S)2-Fc fusion (Fc fusion)
chain: DTQEKEVRAMVGSDVELSCACPEGSRFDLNDVYVYWQTSESKTVVTYHIPQHSSLEYVDSRYRNRALMSPAGMLRGDFSLRLFNVTPQDEQKFHCLVLSRSLGFQEVLSVEVTLHVAANFSVPVVSAPHSPSQDELTFTCTSINGYPRPNVYWINKTDNSLLDQALQNDTVSLNMRGLYDVVSVLRIARTPSVNIGCCIENVLLQQNLTVGSQTGNDIGERDKITENPVSTGEKNAATGGGGSGGGGSEPKSSDKTHTCPPCPAPEAEGAPSVFLFPPKPKDTLMISRTPEVTCVVVDVSHEDPEVKFNWYVDGVEVHNAKTKPREEQYNSTYRVVSVLTVLHQDWLNGKEYKCKVSNKALPAPIEKTISKAKGQPREPQVYTLPPSREEMTKNQVSLTCLVKGFYPSDIAVEWESNGQPENNYKTTPPVLDSDGSFFLYSKLTVDKSRWQQGNVFSCSVMHEALHNHYTQKSLSLSPG
notes: also called ICOSCL ECD with N52H/N57Y/Q100R/F172S
MFI [7]: 110000 MFI | MFI ratio to WT [7]: 63.9 fold | MFI [8]: 136000 MFI | MFI ratio to WT [8]: 1.4 fold | MFI [9]: 323000 MFI | MFI ratio to WT [9]: 42.6 fold | MFI [10]: 12900 MFI | MFI ratio to WT [10]: 3.6 fold | MFI [11]: 16000 MFI | MFI ratio to WT [11]: 1.4 fold | MFI [12]: 8180 MFI | MFI ratio to WT [12]: 0.7 fold | MFI [13]: 14400 MFI | MFI ratio to WT [13]: 4.1 fold | MFI [14]: 12600 MFI | MFI ratio to WT [14]: 1.1 fold | MFI [15]: 8710 MFI | MFI ratio to WT [15]: 0.7 fold

B6: ICOSL (N52H/N57Y/Q100R) (Fc fusion, not shown: a dimerising Fc or GST; small tags and cut ends)
chain: B5 chain with D52H, N57Y, Q100R
notes: also called ICOSL H238; parental ICOSL only protein
EC50 (read off the curve) [16]: ~0.5 nM

B7: ICOSL (N52L/N57H/Q100R) (Fc fusion, not shown: a dimerising Fc or GST; small tags and cut ends)
chain: B5 chain with D52L, N57H, Q100R
notes: also called ICOSL H3447; parental ICOSL only protein
EC50 (read off the curve) [16]: ~0.4 nM

B8: Wildtype ICOSL ECD (control of Tables 30C and 30D) (Fc fusion, not shown: a dimerising Fc or GST)
chain: DTQEKEVRAMVGSDVELSCACPEGSRFDLNDVYVYWQTSESKTVVTYHIPQNSSLENVDSRYRNRALMSPAGMLRGDFSLRLFNVTPQDEQKFHCLVLSQSLGFQEVLSVEVTLHVAANFSVPVVSAPHSPSQDELTFTCTSINGYPRPNVYWINKTDNSLLDQALQNDTVFLNMRGLYDVVSVLRIARTPSVNIGCCIENVLLQQNLTVGSQTGNDIGERDKITENPVSTGEKNAAT
MFI [17]: 7580 MFI | MFI [12]: 12100 MFI
